Reference: patent US20220135638A1 (Takeda / Millennium, published 2022)
Numbered stars: 1 amine (or outer) side, 2 acyl side, 3 side chain; on linkers, the order of the positions; unused ones are H or OH. Square brackets hold non-standard residues; d marks the D form. Primed or numbered codes have the meaning given here. Side chains are listed from the residue outwards. Ends that are not written are not given here. * marks the point of attachment. C20 diacid = O=C(O)CCCCCCCCCCCCCCCCCCC(=O)*; C18 diacid = O=C(O)CCCCCCCCCCCCCCCCC(=O)*; C16 diacid = O=C(O)CCCCCCCCCCCCCCC(=O)*; γGlu = O=C(O)[C@H](CCC(=O)[*:2])N[*:1]; Iva = CC[C@](C)(N)C(=O)O; PEG3′ = not defined here; Aib = CC(C)(N)C(=O)O

T1: full-length human GIPR (GenBank NM_000164) with an N-terminal FLAG tag on HEK-293T cells (human), P48546
T1 chain: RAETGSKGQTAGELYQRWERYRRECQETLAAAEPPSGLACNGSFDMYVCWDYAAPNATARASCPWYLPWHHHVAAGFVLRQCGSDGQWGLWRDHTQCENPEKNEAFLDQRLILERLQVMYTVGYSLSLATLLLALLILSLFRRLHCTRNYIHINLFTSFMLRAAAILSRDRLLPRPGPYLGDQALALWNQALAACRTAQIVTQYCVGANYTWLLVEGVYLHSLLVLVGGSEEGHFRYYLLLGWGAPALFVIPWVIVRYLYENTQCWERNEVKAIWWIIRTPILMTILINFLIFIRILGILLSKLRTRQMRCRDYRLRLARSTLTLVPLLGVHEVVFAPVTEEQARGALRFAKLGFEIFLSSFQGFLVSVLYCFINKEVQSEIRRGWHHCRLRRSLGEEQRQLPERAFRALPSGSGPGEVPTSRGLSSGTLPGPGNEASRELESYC

T2: full-length human GLP-1R (GenBank NM_002062) with an N-terminal FLAG tag on HEK-293T cells (human), P43220
T2 chain: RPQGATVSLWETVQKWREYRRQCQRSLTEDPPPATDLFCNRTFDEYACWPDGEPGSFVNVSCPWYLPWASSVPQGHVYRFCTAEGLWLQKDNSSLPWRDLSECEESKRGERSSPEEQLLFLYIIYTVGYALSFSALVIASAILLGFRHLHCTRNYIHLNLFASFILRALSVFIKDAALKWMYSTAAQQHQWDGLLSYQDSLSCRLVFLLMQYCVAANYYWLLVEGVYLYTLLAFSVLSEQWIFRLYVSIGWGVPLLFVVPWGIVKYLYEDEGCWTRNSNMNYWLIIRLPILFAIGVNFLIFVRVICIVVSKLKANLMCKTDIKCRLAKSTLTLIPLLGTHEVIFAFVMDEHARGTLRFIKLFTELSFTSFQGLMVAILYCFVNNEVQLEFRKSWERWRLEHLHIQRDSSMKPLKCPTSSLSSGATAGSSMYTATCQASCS


Target: T1, full-length human GIPR (GenBank …)
Test: cell-based or functional assay

**Q.** Y[Aib]EGTFISDYSIALDR[Aib]HQ[Aib]NFVNW[Iva]LAQRPSSGK([PEG3′-γGlu-C16 diacid])PPPS (ends and bridges not checked) [Compound No. 521] was tested. Which GIP EC50(pM) did it give?
**A.** 0.9 pM

**Q.** With Y[Aib]EGTFISDYSIALDR[Aib]HQ[Aib]NFVNW[Iva]LAQRPSSGAK([PEG3′-γGlu-C18 diacid])PPS (ends and bridges not checked) [Compound No. 525] as the binder, how does the GIP EC50(pM) read?
**A.** 0.82 pM

**Q.** With Y[Aib]EGTFISDYSIALDR[Aib]HQ[Aib]NFVNW[Iva]LAQRPSSGAPPPK([PEG3′-γGlu-C18 diacid]) (ends and bridges not checked) [Compound No. 534] as the binder, how does the GIP EC50(pM) read?
**A.** 0.81 pM

**Q.** With Y[Aib]EGTFISDYSIALDR[Aib]HQ[Aib]NFVNW[Iva]LAQRPSSGAPPPK([PEG3′-γGlu-C20 diacid]) (ends and bridges not checked) [Compound No. 535] as the binder, how does the GIP EC50(pM) read?
**A.** 1.54 pM

**Q.** For Y[Aib]EGTFISDYSIALDR[Aib]HQ[Aib]NFVNW[Iva]LAQRPSSGAPK([PEG3′-γGlu-C18 diacid])PS (ends and bridges not checked) [Compound No. 528], which GIP EC50(pM) is on record?
**A.** 0.87 pM

**Q.** With Y[Aib]EGTFISDYSIALDR[Aib]HQ[Aib]NFVNW[Iva]LAQRPSK([PEG3′-γGlu-C18 diacid])GAPPPS (ends and bridges not checked) [Compound No. 516] as the binder, how does the GIP EC50(pM) read?
**A.** 1.02 pM

**Q.** With Y[Aib]EGTFISDYSIALDR[Aib]HQ[Aib]NFVNW[Iva]LAQRK([PEG3′-γGlu-C20 diacid])SSGAPPPS (ends and bridges not checked) [Compound No. 511] as the binder, how does the GIP EC50(pM) read?
**A.** 1.61 pM

**Q.** How did the GIP EC50(pM) turn out when Y[Aib]EGTFISDYSIALDR[Aib]HQ[Aib]NFVNW[Iva]LAQRPSK([PEG3′-γGlu-C20 diacid])GAPPPS (ends and bridges not checked) [Compound No. 517] was run?
**A.** 1.99 pM

**Q.** With Y[Aib]EGTFISDYSIALDR[Aib]HQ[Aib]NFVNW[Iva]LAQRPSSGAPK([PEG3′-γGlu-C20 diacid])PS (ends and bridges not checked) [Compound No. 529] as the binder, how does the GIP EC50(pM) read?
**A.** 1.3 pM

**Q.** With Y[Aib]EGTFISDYSIALDR[Aib]HQ[Aib]NFVNW[Iva]LAQRPSSGAPPK([PEG3′-γGlu-C20 diacid])S (ends and bridges not checked) [Compound No. 532] as the binder, how does the GIP EC50(pM) read?
**A.** 2.05 pM

**Q.** With Y[Aib]EGTFISDYSIALDR[Aib]HQ[Aib]NFVNW[Iva]LAQRPK([PEG3′-γGlu-C18 diacid])SGAPPPS (ends and bridges not checked) [Compound No. 513] as the binder, how does the GIP EC50(pM) read?
**A.** 0.5 pM

**Q.** Which GIP EC50(pM) does the source give for Y[Aib]EGTFISDYSIALDR[Aib]HQ[Aib]NFVNW[Iva]LAQRPSSGAPPK([PEG3′-γGlu-C18 diacid])S (ends and bridges not checked) [Compound No. 531] here?
**A.** 1.02 pM

**Q.** Y[Aib]EGTFISDYSIALDR[Aib]HQ[Aib]NFVNW[Iva]LAQRPSSGAPPPK([PEG3′-γGlu-C16 diacid]) (ends and bridges not checked) [Compound No. 533] was tested. Which GIP EC50(pM) did it give?
**A.** 0.59 pM

**Q.** For Y[Aib]EGTFISDYSIALDR[Aib]HQ[Aib]NFVNW[Iva]LAQRPSK([PEG3′-γGlu-C16 diacid])GAPPPS (ends and bridges not checked) [Compound No. 515], which GIP EC50(pM) is on record?
**A.** 0.54 pM

Target: T2, full-length human GLP-1R (GenBank …)
Test: cell-based or functional assay

**Q.** For Y[Aib]EGTFISDYSIALDR[Aib]HQ[Aib]NFVNW[Iva]LAQRPSSGK([PEG3′-γGlu-C16 diacid])PPPS (ends and bridges not checked) [Compound No. 521], which GLP EC50 is on record?
**A.** > 1000 nM

**Q.** Y[Aib]EGTFISDYSIALDR[Aib]HQ[Aib]NFVNW[Iva]LAQRPSSGAK([PEG3′-γGlu-C18 diacid])PPS (ends and bridges not checked) [Compound No. 525] was tested. Which GLP EC50 did it give?
**A.** > 1000 nM

**Q.** Which GLP EC50 does the source give for Y[Aib]EGTFISDYSIALDR[Aib]HQ[Aib]NFVNW[Iva]LAQRPSSGAPPPK([PEG3′-γGlu-C18 diacid]) (ends and bridges not checked) [Compound No. 534] here?
**A.** > 1000 nM

**Q.** How did the GLP EC50 turn out when Y[Aib]EGTFISDYSIALDR[Aib]HQ[Aib]NFVNW[Iva]LAQRPSSGAPPPK([PEG3′-γGlu-C20 diacid]) (ends and bridges not checked) [Compound No. 535] was run?
**A.** > 1000 nM

**Q.** Which GLP EC50 does the source give for Y[Aib]EGTFISDYSIALDR[Aib]HQ[Aib]NFVNW[Iva]LAQRPSSGAPK([PEG3′-γGlu-C18 diacid])PS (ends and bridges not checked) [Compound No. 528] here?
**A.** > 1000 nM

**Q.** With Y[Aib]EGTFISDYSIALDR[Aib]HQ[Aib]NFVNW[Iva]LAQRPSK([PEG3′-γGlu-C18 diacid])GAPPPS (ends and bridges not checked) [Compound No. 516] as the binder, how does the GLP EC50 read?
**A.** > 1000 nM

**Q.** With Y[Aib]EGTFISDYSIALDR[Aib]HQ[Aib]NFVNW[Iva]LAQRK([PEG3′-γGlu-C20 diacid])SSGAPPPS (ends and bridges not checked) [Compound No. 511] as the binder, how does the GLP EC50 read?
**A.** > 1000 nM

**Q.** Y[Aib]EGTFISDYSIALDR[Aib]HQ[Aib]NFVNW[Iva]LAQRPSK([PEG3′-γGlu-C20 diacid])GAPPPS (ends and bridges not checked) [Compound No. 517] was tested. Which GLP EC50 did it give?
**A.** > 1000 nM

**Q.** How did the GLP EC50 turn out when Y[Aib]EGTFISDYSIALDR[Aib]HQ[Aib]NFVNW[Iva]LAQRPSSGAPK([PEG3′-γGlu-C20 diacid])PS (ends and bridges not checked) [Compound No. 529] was run?
**A.** > 1000 nM

**Q.** Y[Aib]EGTFISDYSIALDR[Aib]HQ[Aib]NFVNW[Iva]LAQRPSSGAPPK([PEG3′-γGlu-C20 diacid])S (ends and bridges not checked) [Compound No. 532] was tested. Which GLP EC50 did it give?
**A.** > 1000 nM

**Q.** Y[Aib]EGTFISDYSIALDR[Aib]HQ[Aib]NFVNW[Iva]LAQRPK([PEG3′-γGlu-C18 diacid])SGAPPPS (ends and bridges not checked) [Compound No. 513] was tested. Which GLP EC50 did it give?
**A.** > 1000 nM

**Q.** Y[Aib]EGTFISDYSIALDR[Aib]HQ[Aib]NFVNW[Iva]LAQRPSSGAPPK([PEG3′-γGlu-C18 diacid])S (ends and bridges not checked) [Compound No. 531] was tested. Which GLP EC50 did it give?
**A.** > 1000 nM

**Q.** Y[Aib]EGTFISDYSIALDR[Aib]HQ[Aib]NFVNW[Iva]LAQRPSSGAPPPK([PEG3′-γGlu-C16 diacid]) (ends and bridges not checked) [Compound No. 533] was tested. Which GLP EC50 did it give?
**A.** 776 nM

**Q.** For Y[Aib]EGTFISDYSIALDR[Aib]HQ[Aib]NFVNW[Iva]LAQRPSK([PEG3′-γGlu-C16 diacid])GAPPPS (ends and bridges not checked) [Compound No. 515], which GLP EC50 is on record?
**A.** > 1000 nM
